Data published in article PMC9156751, “Dynamic arrest and aging of biomolecular condensates are modulated by low-complexity domains, RNA and biochemical activity” (Nature Communications, 2022).

Target: the molecule itself
Test: dynamic light scattering; 5 µM Dhh1 with an excess of 5 mM ATP/MgCl2, no RNA; reference buffer 90 mM KCl, 30 mM HEPES-KOH pH 7.4, 2 mM MgCl2; Zetasizer Nano ZS, 173° backscattering; combined with microscopy

B1: mCherry-tagged Dhh1^48–425 (domain or fragment, yeast, UniProt P39517 48-425, looked up)
chain: FEDFYLKRELLMGIFEAGFEKPSPIQEEAIPVAITGRDILARAKNGTGKTAAFVIPTLEKVKPKLNKIQALIMVPTRELALQTSQVVRTLGKHCGISCMVTTGGTNLRDDILRLNETVHILVGTPGRVLDLASRKVADLSDCSLFIMDEADKMLSRDFKTIIEQILSFLPPTHQSLLFSATFPLTVKEFMVKHLHKPYEINLMEELTLKGITQYYAFVEERQKLHCLNTLFSKLQINQAIIFCNSTNRVELLAKKITDLGYSCYYSHARMKQQERNKVFHEFRQGKVRTLVCSDLLTRGIDIQAVNVVINFDFPKTAETYLHRIGRSGRFGHLGLAINLINWNDRFNLYKIEQELGTEIAAIPATIDKSLYVAENDET
notes: DEAD-box ATPase Dhh1 of yeast, residues 48-425: the two RecA domains without the N- and C-terminal low-complexity domains; also called tail-less Dhh1^48–425; LCD-lacking variant; source: E. coli BL21-Gold (DE3), purified (Ni2+ Chelating Sepharose, Superdex 75 SEC)
B1: binds.
